The record followed here is article PMC4874493.

Series [1] has as its target APOBEC3A E72Q (human, UniProt P31941 1-199, E72Q). The series can be described thus: fluorescence anisotropy. On the technique in general: In fluorescence polarisation assays a small probe gives low polarisation when free and higher when bound to something large.
The target in series [2] is APOBEC3A E72A/C171A (human, UniProt P31941 1-199, E72A;C171A). The series can be described thus: fluorescence anisotropy.

What is called Kd is the concentration at which binding is half-saturated.

Sequence of APOBEC3A E72A/C171A (P31941 whole entry E72A/C171A): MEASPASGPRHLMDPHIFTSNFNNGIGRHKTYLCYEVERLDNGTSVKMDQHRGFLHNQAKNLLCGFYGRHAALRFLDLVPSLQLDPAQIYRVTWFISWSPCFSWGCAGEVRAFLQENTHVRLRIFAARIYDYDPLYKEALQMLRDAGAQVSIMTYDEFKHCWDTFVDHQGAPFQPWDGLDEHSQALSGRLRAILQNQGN
Sequence of APOBEC3A E72Q (P31941 whole entry E72Q): as the sequence (P31941 whole entry E72A/C171A) above, with A72Q, A171C counted along it

For the molecule TTTTTTTTTTTTTTT (ssDNA) [polyT (TTT)], the Kd was found to be 205 ± 20 nM in series [1] and 502 ± 27 nM in series [2].
